This data set concerns the molecule itself. Kind of data set: GraFix.

Changes are numbered by the printed parent chain. Numbers in names are those of the source.

B1: ad2-100K truncation mutant Δ693–805 with a C terminal 2 × Strep tag (domain or fragment, human adenovirus type 2 (ad2), UniProt P24932 1-692, looked up)
chain: MESVEKEDSLTAPFEFATTASTDAANAPTTFPVEAPPLEEEEVIIEQDPGFVSEDDEDRSVPTEDKKQDQDDAEANEEQVGRGDQRHGDYLDVGDDVLLKHLQRQCAIICDALQERSDVPLAIADVSLAYERHLFSPRVPPKRQENGTCEPNPRLNFYPVFAVPEVLATYHIFFQNCKIPLSCRANRSRADKQLALRQGAVIPDIASLDEVPKIFEGLGRDEKRAANALQQENSENESHCGVLVELEGDNARLAVLKRSIEVTHFAYPALNLPPKVMSTVMSELIVRRARPLERDANLQEQTEEGLPAVGDEQLARWLETREPADLEERRKLMMAAVLVTVELECMQRFFADPEMQRKLEETLHYTFRQGYVRQACKISNVELCNLVSYLGILHENRLGQNVLHSTLKGEARRDYVRDCVYLFLCYTWQTAMGVWQQCLEERNLKELQKLLKQNLKDLWTAFNERSVAAHLADIIFPERLLKTLQQGLPDFTSQSMLQNFRNFILERSGILPATCCALPSDFVPIKYRECPPPLWGHCYLLQLANYLAYHSDIMEDVSGDGLLECHCRCNLCTPHRSLVCNSQLLSESQIIGTFELQGPSPDEKSAAPGLKLTPGLWTSAYLRKFVPEDYHAHEIRFYEDQSRPPNAELTACVITQGHILGQLQAINKARQEFLLRKGRGVYLDPQSGEELN
Turning to B1, the binding result is “binds”.

B2: ad2-100K truncation mutant Δ680–805 with a C terminal 2 × Strep tag (domain or fragment, human adenovirus type 2 (ad2), UniProt P24932 1-679, looked up)
chain: MESVEKEDSLTAPFEFATTASTDAANAPTTFPVEAPPLEEEEVIIEQDPGFVSEDDEDRSVPTEDKKQDQDDAEANEEQVGRGDQRHGDYLDVGDDVLLKHLQRQCAIICDALQERSDVPLAIADVSLAYERHLFSPRVPPKRQENGTCEPNPRLNFYPVFAVPEVLATYHIFFQNCKIPLSCRANRSRADKQLALRQGAVIPDIASLDEVPKIFEGLGRDEKRAANALQQENSENESHCGVLVELEGDNARLAVLKRSIEVTHFAYPALNLPPKVMSTVMSELIVRRARPLERDANLQEQTEEGLPAVGDEQLARWLETREPADLEERRKLMMAAVLVTVELECMQRFFADPEMQRKLEETLHYTFRQGYVRQACKISNVELCNLVSYLGILHENRLGQNVLHSTLKGEARRDYVRDCVYLFLCYTWQTAMGVWQQCLEERNLKELQKLLKQNLKDLWTAFNERSVAAHLADIIFPERLLKTLQQGLPDFTSQSMLQNFRNFILERSGILPATCCALPSDFVPIKYRECPPPLWGHCYLLQLANYLAYHSDIMEDVSGDGLLECHCRCNLCTPHRSLVCNSQLLSESQIIGTFELQGPSPDEKSAAPGLKLTPGLWTSAYLRKFVPEDYHAHEIRFYEDQSRPPNAELTACVITQGHILGQLQAINKARQEFLLRKGR
Regarding B2, the binding result is recorded as “binds”.

B3: ad2-100K fused with a C terminal 2 × Strep tag (natural protein, human adenovirus type 2 (ad2), UniProt P24932 1-805, looked up)
chain: MESVEKEDSLTAPFEFATTASTDAANAPTTFPVEAPPLEEEEVIIEQDPGFVSEDDEDRSVPTEDKKQDQDDAEANEEQVGRGDQRHGDYLDVGDDVLLKHLQRQCAIICDALQERSDVPLAIADVSLAYERHLFSPRVPPKRQENGTCEPNPRLNFYPVFAVPEVLATYHIFFQNCKIPLSCRANRSRADKQLALRQGAVIPDIASLDEVPKIFEGLGRDEKRAANALQQENSENESHCGVLVELEGDNARLAVLKRSIEVTHFAYPALNLPPKVMSTVMSELIVRRARPLERDANLQEQTEEGLPAVGDEQLARWLETREPADLEERRKLMMAAVLVTVELECMQRFFADPEMQRKLEETLHYTFRQGYVRQACKISNVELCNLVSYLGILHENRLGQNVLHSTLKGEARRDYVRDCVYLFLCYTWQTAMGVWQQCLEERNLKELQKLLKQNLKDLWTAFNERSVAAHLADIIFPERLLKTLQQGLPDFTSQSMLQNFRNFILERSGILPATCCALPSDFVPIKYRECPPPLWGHCYLLQLANYLAYHSDIMEDVSGDGLLECHCRCNLCTPHRSLVCNSQLLSESQIIGTFELQGPSPDEKSAAPGLKLTPGLWTSAYLRKFVPEDYHAHEIRFYEDQSRPPNAELTACVITQGHILGQLQAINKARQEFLLRKGRGVYLDPQSGEELNPIPPPPQPYQQPRALASQDGTQKEAAAAAAATHGRGGILGQSGRGGFGRGGGDDGRLGQPRRSFRGRRGVRRNTVTLGRIPLAGAPEIGNRSQHRYNLRSSGAAGTACSPTQP
modifications: intermolecular disulfide bonds C515-C516' and C516-C515' between the two protomers
On to B3, for which the “stoichiometry N” value came out at 2.

B4: ad2-100K mutant C515S-C516S-strepII (natural protein, human adenovirus type 2 (ad2), UniProt P24932 1-805, looked up)
chain: B3 chain with C515S, C516S
As to B4, the binding result was “binds”.

(Values after article PMC12041577 (Nature Communications, 2025).)
